According to patent publication US20220153851A1 (Five Prime, published 2022):
Residue numbers refer to the chain shown, from its start.

B1: h0301-L0H0 (antibody, human IgG4 S228P, kappa)
heavy: not shown
light: EIVLTQSPATLSLSPGERATLSCKASQSVDYDGDNYMNWYQQKPGQAPRLLIYAASNLESGIPARFSGSGSGTDFTLTISSLEPEDFAVYYCHLSNEDLSTFGGGTKVEIKRTVAAPSVFIFPPSDEQLKSGTASVVCLLNNFYPREAKVQWKVDNALQSGNSQESVTEQDSKDSTYSLSSTLTLSKADYEKHKVYACEVTHQGLSSPVTKSFNRGEC
notes: also called Ab1; huAb 0301-L0H0
B2: h0301-L1H0 (antibody, human IgG4 S228P, kappa)
heavy: not shown
light: B1 light with E1N
notes: also called Ab4; huAb 0301-L1H0
B3: h0311-L0H1 (antibody, human IgG4 S228P, kappa, V domains shown)
VH: QVQLVQSGAEVKKPGSSVKVSCKASGYIFTDYNMHWVRQAPGQGLEWMGEINPNNGVVVYNQKFKGRVTITVDKSTSTAYMELSSLRSEDTAVYYCTRALYHSNFGWYFDSWGQGTLVTVSS
VL: EIVLTQSPATLSLSPGERATLSCKASQSVDYDGDSHMNWYQQKPGQAPRLLIYTASNLESGIPARFSGSGSGTDFTLTISSLEPEDFAVYYCQQGNEDPWTFGQGTKVEIKR
notes: also called Ab13; huAb 0311-L0H1
B4: h0311-L1H2 (antibody, human IgG4 S228P, kappa, V domains shown)
VH: B3 VH with R67T, V68T, I70L
VL: B3 VL with E1D, T73A
notes: also called Ab16; huAb 0311-L1H2
B5: h0302-L1H2 (antibody, human IgG4 S228P, kappa, V domains shown)
VH: QVQLVQSGAEVKKPGSSVKVSCKASGYTFSDFNIHWVRQAPGQGLEWIGYINPYTDVTVYNEKFKGRATLTSDKSTSTAYMELSSLRSEDTAVYYCASYFDGTFDYALDYWGQGTLVTVSS
VL: B3 VL with K24R, Q27E, Y31N, D32Y, D34L, H36F, G72R, G95S, N96K, D98L
notes: also called Ab11; huAb 0302-L1H2
B6: cAb 0311 (antibody, human IgG4 S228P, kappa, V domains shown)
VH: EIQLQQSGPDLMKPGASVKMSCKASGYIFTDYNMHWVKQNQGKSLEWMGEINPNNGVVVYNQKFKGTTTLTVDKSSSTAYMDLHSLTSEDSAVYYCTRALYHSNFGWYFDSWGKGTTLTVSS
VL: DIVLTQSPASLAVSLGQRATISCKASQSVDYDGDSHMNWYQQKPGQPPKLLIYTASNLESGIPARFSGSGSGADFTLTIHPVEEEDAATYYCQQGNEDPWTFGGGTRLEIKR
B7: cAb 0302 (antibody, human IgG4 S228P, kappa)
heavy: not shown
light: DVVVTQTPASLAVSLGQRATISCRASESVDNYGLSFMNWFQQKPGQPPKLLIYTASNLESGIPARFSGGGSRTDFTLTIDPVEADDAATYFCQQSKELPWTFGGGTRLEIKRTVAAPSVFIFPPSDEQLKSGTASVVCLLNNFYPREAKVQWKVDNALQSGNSQESVTEQDSKDSTYSLSSTLTLSKADYEKHKVYACEVTHQGLSSPVTKSFNRGEC

Target: T1, human CSF1R on CSF1R (SEQ ID NO: 2)-transfected CHO cells (human, UniProt P07333 20-972)
Assay: cell-based or functional assay

CSF1 blocking IC50 (ligand-induced CSF1R phosphorylation in CHO cells) [µg/mL] | IL34 blocking IC50 (ligand-induced CSF1R phosphorylation in CHO cells) [µg/mL] | Binder
0.305 | 0.341 | B1
0.213 | 0.242 | B2
0.127 | 0.338 | B3

Target: T2, hCSF1R ECD.506-Fc (human)
T2 construct: also called human CSF1R ECD-Fc fusion protein; human CSF1R ECD
Assay: ELISA, plate coated with human CSF1R ECD-Fc
Protocol: (§1) Ninety-six well clear-bottom ELISA plates were coated overnight with 1 μg/ml recombinant hCSF1R ECD.506-Fc (SEQ ID NO: 6; FivePrime Therapeutics) or Human M-CSF R Fc Chimera (R&D Systems) in PBS. The next morning, wells were washed four times with 0.05% Tween20 in PBS (PBST) and blocked with Blocker-Blotto (Pierce). Fifty μl of 0.5× serial dilutions of the humanized antibody or parental chimeric antibody, beginning with 2000 ng/ml, diluted 1:1 in Blocker-Blotto were added to the CSF1R-coated wells. After incubation at room temperature (RT) for 90 min, wells were washed four times with PBST, and a 1:5000 dilution of a peroxidase-conjugated Goat anti-Human kappa Light chain antibody (Sigma) in Blocker-Blotto was added to each well. After incubation at RT for 60 min, wells were washed four times with PBST, and 50 μl o-phenylenediamine dihydrochloride peroxidase substrate (Sigma) was added to each well. After incubation at RT for 30 min, A450 values of each well were read directly on a SpectraMaxPlus spectrophotometer with SoftMaxPro software (Molecular Devices).

EC50 [µg/mL] | Binder
0.0134 | B1
0.0134 | B2
0.0131 | B3
0.0133 | B4
0.0221 | B5
0.0176 | B6
0.0159 | B7

Target: T1, human CSF1R on CSF1R (SEQ ID NO: …)
Assay: cell-based or functional assay
Remark: another data set of the same source

IC50 (read off the curve), CSF1-induced CSF1R phosphorylation [µg/mL] | Binder
~0.6 | B5
~0.3 | B7

Target: T3, mCSF1R ECD-Fc (mouse)
T3 construct: also called mouse CSF1R ECD
Assay: ELISA, plate coated with mCSF1R ECD-Fc, detection anti-human kappa-HRP, A450
Protocol: as §1
(§2) The binding curve for each humanized antibody binding to mouse CSF1R ECD was determined as described above for human CSF1R, except the wells of the clear-bottom ELISA plates were coated overnight with 2 μg/ml recombinant mCSF1R ECD-Fc (FivePrime Therapeutics, SEQ ID NO: 93).

binding result | Binder
no binding (tested: 2000 ng/ml) | B1
no binding (tested: 2000 ng/ml) | B2
no binding (tested: 2000 ng/ml) | B3
no binding (tested: 2000 ng/ml) | B4
no binding (tested: 2000 ng/ml) | B5
no binding (tested: 2000 ng/ml) | B6
no binding (tested: 2000 ng/ml) | B7

Target: T4, cynoCSF1R ECD-Fc (cynomolgus)
T4 construct: also called cynomolgus CSF1R ECD
Assay: competition ELISA, blocking of human IL34 binding to cynoCSF1R ECD-Fc

IC50 [µg/mL] | Binder
0.0359 | B1
0.0348 | B2
0.0504 | B3
0.0486 | B4
0.541 | B5
0.0521 | B6
0.0494 | B7

Target: T5, hCSF1R ECD.506 (human, UniProt P07333 20-506)
T5 construct: also called human CSF1R ECD
Assay: SPR Biacore T100, antibody captured on anti-human IgG, hCSF1R ECD.506 as analyte, 1:1 model
Protocol: The kₐ, kd, and KD for binding to human CSF1R ECD was determined for each of the humanized antibodies as follows.
Binding kinetics of anti-CSF1R humanized antibodies to CSF1R ECD was determined using Biacore T100 Surface Plasmon Resonance (SPR) (GE Healthcare Life Sciences, Piscataway, N.Y.). Each of the humanized anti-CSF1R antibodies was captured on a CM5 sensor chip immobilized with anti-Human IgG antibody using the Human antibody capture kit (GE Healthcare Life Sciences, Piscataway, N.Y.) at 150 RU so that the Rmax value for hCSF1R ECD.506 (SEQ ID NO: 5) binding was 100 RU. Rmax values of less than 150 RU are recommended for accurately determining kinetic values. […] The association constant, dissociation constant, affinity, and binding capacity of each of the Fabs for human CSF1R ECD was calculated using the Biacore T100 Evaluation software package using the 1:1 binding model.

Kd [nM] | koff [s⁻¹] | kon [M⁻¹ s⁻¹] | Binder
0.35 | 0.00111 | 3.22e+06 | B1
0.35 | 0.00115 | 3.29e+06 | B2
0.44 | 0.00054 | 1.22e+06 | B3
0.4 | 0.000609 | 1.51e+06 | B4
0.56 | 0.00153 | 2.71e+06 | B5

Target: T4, cynoCSF1R ECD-Fc
Assay: competition ELISA, blocking of human CSF1 binding to cynoCSF1R ECD-Fc
Protocol: The humanized antibodies, along with the parental chimeric antibodies (cAbs), were tested for their ability to block human CSF1 binding to human and cynomolgus CSF1R ECD, as follows.
Recombinant Human CSF1 (M-CSF; R&D Systems) was biotinylated using an NH₂-Biotin Labeling Kit (Dojindo Molecular Technologies). One hundred μl of 1 μg/ml biotinylated CSF1 in PBST/0.1% BSA was added to the wells of Reacti-Bind Streptavidin coated plates (Pierce) pre-blocked with SuperBlock blocking buffer (Pierce) according to the manufacturer's instructions. Fifty μl of 0.5× serial dilutions of the humanized antibody or parental chimeric antibody, beginning with 2000 ng/ml, was incubated with 50 ng/ml hCSF1R ECD.506-Fc (SEQ ID NO: 6; FivePrime Therapeutics) or 50 ng/ml cynoCSF1R ECD-Fc (FivePrime Therapeutics, SEQ ID NO: 8, but without the 19 amino acid leader sequence) in 100 μl PBST/0.1% BSA for 90 min at RT, after which the admix was transferred to one or more wells of a ligand-coated plate. After 90 min at RT, wells were washed with PBST, and a 1:5000 dilution of an Fc-fragment-specific peroxidase-conjugated goat anti-human IgG (Jackson Immuno Research) in PBST/0.1% BSA was added to each well. After incubation at RT for 60 min, wells were washed with PBST/0.1% BSA, and o-phenylenediamine dihydrochloride peroxidase substrate (Sigma) was added to each well. After incubation at RT for 30 min, A450 values of each well were read directly on a SpectraMaxPlus spectrophotometer with SoftMaxPro software (Molecular Devices).

IC50 [µg/mL] | Binder
0.0276 | B1
0.0255 | B2
0.0325 | B3
0.0308 | B4
1.08 | B5
0.0435 | B6
0.0331 | B7

Target: T1, human CSF1R on CSF1R (SEQ ID NO: …)
Assay: cell-based or functional assay
Remark: another data set of the same source

IC50, inhibition of CSF1-induced CSF1R phosphorylation (head prints 'Human CSF1/Human CSF1R ECD IC50') [µg/mL] | IC50, inhibition of IL34-induced CSF1R phosphorylation (head prints 'Human IL34/Human CSF1R ECD IC50') [µg/mL] | Binder
1.03 | 0.433 | B1
6.15 | 0.378 | B2
0.291 | 0.343 | B3
0.419 | 0.578 | B4
0.598 | 0.495 | B5
0.577 | 0.994 | B6
0.264 | 0.351 | B7

Target: T1, human CSF1R on CSF1R (SEQ ID NO: …)
Assay: cell-based or functional assay
Remark: another data set of the same source

IC50 (read off the curve), IL34-induced CSF1R phosphorylation [µg/mL] | Binder
~0.4 | B3
~0.6 | B4
~1 | B6

Target: T4, cynoCSF1R ECD-Fc
Assay: ELISA, plate coated with cynoCSF1R ECD-Fc
Protocol: as §1
as §2, with “cynomolgus” for “mouse”, “cynoCSF1R” for “mCSF1R”, “8, but without the 19 amino acid leader sequence).” for “93).”

EC50 [µg/mL] | Binder
0.0151 | B1
0.0119 | B2
0.0216 | B3
0.0203 | B4
0.172 | B5
0.0201 | B6
0.0173 | B7
